Test results: paper PMC7933954 (EMBO Molecular Medicine, 2021)

Target: T1, mouse DR5 (Mus musculus (4T1: BALB/c; MC38: …, UniProt Q9QZM4)
T1 construct: mouse DR5, endogenous on the surface of 4T1 and MC38 cells; also called muDR5; murine DR5; source: endogenous, on murine 4T1 and MC38 cells
Assay: flow cytometry on cells; antibody on murine 4T1 and MC38 cells, FACS histograms
Details: one partner purified

T1 sequence (Q9QZM4 53-381): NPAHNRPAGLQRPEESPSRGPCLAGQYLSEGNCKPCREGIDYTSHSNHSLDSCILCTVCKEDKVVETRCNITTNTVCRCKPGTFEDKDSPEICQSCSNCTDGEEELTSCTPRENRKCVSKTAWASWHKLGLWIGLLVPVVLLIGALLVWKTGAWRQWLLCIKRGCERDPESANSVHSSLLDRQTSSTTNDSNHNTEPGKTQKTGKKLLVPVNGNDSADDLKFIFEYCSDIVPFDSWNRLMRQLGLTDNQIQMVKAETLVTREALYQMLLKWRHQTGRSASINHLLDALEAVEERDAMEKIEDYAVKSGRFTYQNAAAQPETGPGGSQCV

binding result: binds
B1: MD5‐1 (antibody, V domains shown)
VH: QIQLQESGPGLVKPAQSLSLTCSITGFPITAGGYWWTWIRQFPGQKLEWMGYIYSSGSTNYNPSIKSRISITRDTAKNQFFLQLNSVTTEEDTAIYYCARAGTSYSGFFDSWGQGTLVTVSS
VL: DIQVTQSPSLLSASFGDKVTINCLVTQDITYYLSWYQQKSGQPPTLLIYNGNSLQSGVPSRFSGQYSGRTFTLSLSSLEPEDAGTYYCLQHYSVPFTFGGGTRLEIK
notes: heavy chain of MD5‐1; light chain of MD5‐1; for efficacy studies it is said to carry IgG1 KO‐Fc and S267E mutations; also called anti‐mouse DR5 antibody (MD5‐1); murine DR5 agonist MD5‐1
